Positions of bridges follow the written chain, without caps; N, C: chain ends. Non-standard residues stand in square brackets, D forms with d. No end group written: not given here. *: point of attachment. Acetyl(2-(4-imidazolyl)) = O=C(Cc1c[nH]cn1)*; Aib = CC(C)(N)C(=O)O
T1: human GIP receptor (human, UniProt P48546 22-466)
T1 sequence (looked up): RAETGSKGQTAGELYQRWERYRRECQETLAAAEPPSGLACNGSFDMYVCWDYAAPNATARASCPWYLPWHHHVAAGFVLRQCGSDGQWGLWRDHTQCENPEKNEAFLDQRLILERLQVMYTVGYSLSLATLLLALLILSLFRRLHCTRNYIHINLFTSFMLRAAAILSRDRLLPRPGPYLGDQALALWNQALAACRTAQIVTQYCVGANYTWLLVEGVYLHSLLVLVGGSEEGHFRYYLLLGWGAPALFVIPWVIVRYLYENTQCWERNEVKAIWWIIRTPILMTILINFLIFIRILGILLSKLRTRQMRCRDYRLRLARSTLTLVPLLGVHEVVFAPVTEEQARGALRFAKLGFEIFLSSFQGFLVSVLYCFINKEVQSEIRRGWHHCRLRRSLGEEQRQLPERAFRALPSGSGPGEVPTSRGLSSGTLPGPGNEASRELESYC


Molecular target: human GLP-1 receptor (human, UniProt P43220 24-463)
Assay: cell-based or functional assay

Row | Binder | In vitro Activity Compared to Native Peptide (%) vs. GLP-1 [%]
1 | [Acetyl(2-(4-imidazolyl))]GEGTFISDLSKYMDEQAVQLFVEWLMAGGPSSGAPPPSHG [triple agonist of SEQ ID NO: 12] | 0.4
2 | [Acetyl(2-(4-imidazolyl))][Aib]QGTFTSDYSKYLDEKRQKEFVQWLLNTKC (bridge 16-20) [triple agonist of SEQ ID NO: 88] | 9.6
3 | Y[Aib]QGTFTSDYSKALDEKAAKEFVNWLLDHHPSSGQPPPSC (bridge 16-20) [triple agonist of SEQ ID NO: 98] | 28.1
4 | H[Aib]QGTFTSDVSKYLDGQAAQEFVAWLLAGGGPSSGAPPPSC [triple agonist of SEQ ID NO: 10] | 46
5 | H[Aib]QGTFTSDVSSYLDGQAQKEFIAWLVKGC [triple agonist of SEQ ID NO: 2] | 5.9
6 | [Acetyl(2-(4-imidazolyl))][Aib]EGTFTSDYSIAMDEIHQKDFVDWLLAEKC (bridge 16-20) [triple agonist of SEQ ID NO: 91] | 31.9
7 | [Acetyl(2-(4-imidazolyl))][Aib]QGTFTSDYSIAMDEIHQKDFVNWLLAQKC (bridge 16-20) [triple agonist of SEQ ID NO: 92] | 0.8
8 | Y[Aib]QGTFTSDYSKALDEKAAKEFVQWLLDQHPSSGQPPPSC (bridge 16-20) [triple agonist of SEQ ID NO: 100] | 42.2
9 | [Acetyl(2-(4-imidazolyl))][Aib]QGTFTSDYSKYLDEKRQKEFVNWLLAQKC (bridge 16-20) [triple agonist of SEQ ID NO: 93] | 5.7
10 | [Acetyl(2-(4-imidazolyl))]GQGTFTSDYSIQLDEIAVRDFVEWLKNGGPSSGAPPPSHG [triple agonist of SEQ ID NO: 14] | 28
11 | Y[Aib]QGTFTSDYSKALDEKAAKEFVNWLLDQHPSSGQPPPSC (bridge 16-20) [triple agonist of SEQ ID NO: 101] | 23.2
12 | [Acetyl(2-(4-imidazolyl))][Aib]EGTFTSDYSIAMDEIHQKDFVNWLLAQKC (bridge 16-20) [triple agonist of SEQ ID NO: 90] | 7.4
13 | Y[Aib]QGTFTSDYSKYLDEKRAKEFVQWLLCHHPSSGQPPPS (bridge 16-20) [triple agonist of SEQ ID NO: 95] | 2.1
14 | [Acetyl(2-(4-imidazolyl))][Aib]QGTFTSDYSIAMDEIHQKDFVNWLLNTC (bridge 16-20) [triple agonist of SEQ ID NO: 87] | 0.9
15 | [Acetyl(2-(4-imidazolyl))][Aib]QGTFTSDYSIAMDEIHQKDFVNWLLNTKC (bridge 16-20) [triple agonist of SEQ ID NO: 94] | 0.5
16 | Y[Aib]QGTFTSDYSKYLDEKRAKEFVQWLLDHCPSSGQPPPS (bridge 16-20) [triple agonist of SEQ ID NO: 96] | 34.4
17 | [Acetyl(2-(4-imidazolyl))]GEGTFISDYSIQLDEIAVQDFVEWLLAQKPSSGAPPPSHG [triple agonist of SEQ ID NO: 13] | < 0.1
18 | [Acetyl(2-(4-imidazolyl))][Aib]QGTFTSDYSKYLDEKRQKEFVQWLLDTKC (bridge 16-20) [triple agonist of SEQ ID NO: 89] | 7.1
19 | Y[Aib]QGTFTSDYSKALDEKAAKDFVNWLLDHHPSSGQPPPSC (bridge 16-20) [triple agonist of SEQ ID NO: 99] | 20.9
20 | [Acetyl(2-(4-imidazolyl))]GEGTFTSDLSKYLDSRRQQLFVQWLKAGGPSSGAPPPSHG [triple agonist of SEQ ID NO: 11] | 1.4
21 | Y[Aib]QGTFTSDYSKALDEKAAKDFVNWLLDQHPSSGQPPPSC (bridge 16-20) [triple agonist of SEQ ID NO: 102] | 23.3
22 | Y[Aib]QGTFTSDYSKYLDEKRAKEFVQWLLDCHPSSGQPPPS (bridge 16-20) [triple agonist of SEQ ID NO: 97] | 10.5

Molecular target: human GCG receptor (human, UniProt P47871 26-477)
Sequence (P47871 26-477): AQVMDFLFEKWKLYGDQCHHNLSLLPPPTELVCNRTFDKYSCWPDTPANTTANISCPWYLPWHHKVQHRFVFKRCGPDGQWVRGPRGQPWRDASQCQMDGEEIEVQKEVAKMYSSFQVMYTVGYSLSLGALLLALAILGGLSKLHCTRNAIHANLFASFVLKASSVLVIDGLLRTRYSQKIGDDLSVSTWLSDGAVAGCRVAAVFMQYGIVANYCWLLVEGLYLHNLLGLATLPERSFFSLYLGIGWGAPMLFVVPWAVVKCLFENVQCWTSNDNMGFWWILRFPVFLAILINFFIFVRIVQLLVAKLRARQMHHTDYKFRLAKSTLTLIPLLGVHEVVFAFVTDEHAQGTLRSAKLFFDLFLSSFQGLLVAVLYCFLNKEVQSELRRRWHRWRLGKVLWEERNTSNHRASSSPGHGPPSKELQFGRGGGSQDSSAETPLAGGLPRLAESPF
Assay: cell-based or functional assay

Row | Binder | In vitro Activity Compared to Native Peptide (%) vs. Glucagon [%]
23 | [Acetyl(2-(4-imidazolyl))]GEGTFISDLSKYMDEQAVQLFVEWLMAGGPSSGAPPPSHG [triple agonist of SEQ ID NO: 12] | < 0.1
24 | [Acetyl(2-(4-imidazolyl))][Aib]QGTFTSDYSKYLDEKRQKEFVQWLLNTKC (bridge 16-20) [triple agonist of SEQ ID NO: 88] | 0.3
25 | Y[Aib]QGTFTSDYSKALDEKAAKEFVNWLLDHHPSSGQPPPSC (bridge 16-20) [triple agonist of SEQ ID NO: 98] | 8.2
26 | H[Aib]QGTFTSDVSKYLDGQAAQEFVAWLLAGGGPSSGAPPPSC [triple agonist of SEQ ID NO: 10] | < 0.1
27 | H[Aib]QGTFTSDVSSYLDGQAQKEFIAWLVKGC [triple agonist of SEQ ID NO: 2] | < 0.1
28 | [Acetyl(2-(4-imidazolyl))][Aib]EGTFTSDYSIAMDEIHQKDFVDWLLAEKC (bridge 16-20) [triple agonist of SEQ ID NO: 91] | 16.8
29 | [Acetyl(2-(4-imidazolyl))][Aib]QGTFTSDYSIAMDEIHQKDFVNWLLAQKC (bridge 16-20) [triple agonist of SEQ ID NO: 92] | < 0.1
30 | Y[Aib]QGTFTSDYSKALDEKAAKEFVQWLLDQHPSSGQPPPSC (bridge 16-20) [triple agonist of SEQ ID NO: 100] | 12.7
31 | [Acetyl(2-(4-imidazolyl))][Aib]QGTFTSDYSKYLDEKRQKEFVNWLLAQKC (bridge 16-20) [triple agonist of SEQ ID NO: 93] | 0.3
32 | [Acetyl(2-(4-imidazolyl))]GQGTFTSDYSIQLDEIAVRDFVEWLKNGGPSSGAPPPSHG [triple agonist of SEQ ID NO: 14] | < 0.1
33 | Y[Aib]QGTFTSDYSKALDEKAAKEFVNWLLDQHPSSGQPPPSC (bridge 16-20) [triple agonist of SEQ ID NO: 101] | 13.9
34 | [Acetyl(2-(4-imidazolyl))][Aib]EGTFTSDYSIAMDEIHQKDFVNWLLAQKC (bridge 16-20) [triple agonist of SEQ ID NO: 90] | < 0.1
35 | Y[Aib]QGTFTSDYSKYLDEKRAKEFVQWLLCHHPSSGQPPPS (bridge 16-20) [triple agonist of SEQ ID NO: 95] | 0.4
36 | [Acetyl(2-(4-imidazolyl))][Aib]QGTFTSDYSIAMDEIHQKDFVNWLLNTC (bridge 16-20) [triple agonist of SEQ ID NO: 87] | < 0.1
37 | [Acetyl(2-(4-imidazolyl))][Aib]QGTFTSDYSIAMDEIHQKDFVNWLLNTKC (bridge 16-20) [triple agonist of SEQ ID NO: 94] | < 0.1
38 | Y[Aib]QGTFTSDYSKYLDEKRAKEFVQWLLDHCPSSGQPPPS (bridge 16-20) [triple agonist of SEQ ID NO: 96] | 195
39 | [Acetyl(2-(4-imidazolyl))]GEGTFISDYSIQLDEIAVQDFVEWLLAQKPSSGAPPPSHG [triple agonist of SEQ ID NO: 13] | < 0.1
40 | [Acetyl(2-(4-imidazolyl))][Aib]QGTFTSDYSKYLDEKRQKEFVQWLLDTKC (bridge 16-20) [triple agonist of SEQ ID NO: 89] | 0.7
41 | Y[Aib]QGTFTSDYSKALDEKAAKDFVNWLLDHHPSSGQPPPSC (bridge 16-20) [triple agonist of SEQ ID NO: 99] | 14.9
42 | [Acetyl(2-(4-imidazolyl))]GEGTFTSDLSKYLDSRRQQLFVQWLKAGGPSSGAPPPSHG [triple agonist of SEQ ID NO: 11] | < 0.1
43 | Y[Aib]QGTFTSDYSKALDEKAAKDFVNWLLDQHPSSGQPPPSC (bridge 16-20) [triple agonist of SEQ ID NO: 102] | 29.5
44 | Y[Aib]QGTFTSDYSKYLDEKRAKEFVQWLLDCHPSSGQPPPS (bridge 16-20) [triple agonist of SEQ ID NO: 97] | 62.8

Molecular target: T1, human GIP receptor
Assay: cell-based or functional assay

Row | Binder | In vitro Activity Compared to Native Peptide (%) vs. GIP [%]
45 | [Acetyl(2-(4-imidazolyl))]GEGTFISDLSKYMDEQAVQLFVEWLMAGGPSSGAPPPSHG [triple agonist of SEQ ID NO: 12] | < 0.1
46 | [Acetyl(2-(4-imidazolyl))][Aib]QGTFTSDYSKYLDEKRQKEFVQWLLNTKC (bridge 16-20) [triple agonist of SEQ ID NO: 88] | < 0.1
47 | Y[Aib]QGTFTSDYSKALDEKAAKEFVNWLLDHHPSSGQPPPSC (bridge 16-20) [triple agonist of SEQ ID NO: 98] | 47.1
48 | H[Aib]QGTFTSDVSKYLDGQAAQEFVAWLLAGGGPSSGAPPPSC [triple agonist of SEQ ID NO: 10] | < 0.1
49 | H[Aib]QGTFTSDVSSYLDGQAQKEFIAWLVKGC [triple agonist of SEQ ID NO: 2] | < 0.1
50 | [Acetyl(2-(4-imidazolyl))][Aib]EGTFTSDYSIAMDEIHQKDFVDWLLAEKC (bridge 16-20) [triple agonist of SEQ ID NO: 91] | 0.3
51 | [Acetyl(2-(4-imidazolyl))][Aib]QGTFTSDYSIAMDEIHQKDFVNWLLAQKC (bridge 16-20) [triple agonist of SEQ ID NO: 92] | 0.4
52 | Y[Aib]QGTFTSDYSKALDEKAAKEFVQWLLDQHPSSGQPPPSC (bridge 16-20) [triple agonist of SEQ ID NO: 100] | 118
53 | [Acetyl(2-(4-imidazolyl))][Aib]QGTFTSDYSKYLDEKRQKEFVNWLLAQKC (bridge 16-20) [triple agonist of SEQ ID NO: 93] | 0.7
54 | [Acetyl(2-(4-imidazolyl))]GQGTFTSDYSIQLDEIAVRDFVEWLKNGGPSSGAPPPSHG [triple agonist of SEQ ID NO: 14] | < 0.1
55 | Y[Aib]QGTFTSDYSKALDEKAAKEFVNWLLDQHPSSGQPPPSC (bridge 16-20) [triple agonist of SEQ ID NO: 101] | 40.1
56 | [Acetyl(2-(4-imidazolyl))][Aib]EGTFTSDYSIAMDEIHQKDFVNWLLAQKC (bridge 16-20) [triple agonist of SEQ ID NO: 90] | < 0.1
57 | Y[Aib]QGTFTSDYSKYLDEKRAKEFVQWLLCHHPSSGQPPPS (bridge 16-20) [triple agonist of SEQ ID NO: 95] | < 0.1
58 | [Acetyl(2-(4-imidazolyl))][Aib]QGTFTSDYSIAMDEIHQKDFVNWLLNTC (bridge 16-20) [triple agonist of SEQ ID NO: 87] | < 0.1
59 | [Acetyl(2-(4-imidazolyl))][Aib]QGTFTSDYSIAMDEIHQKDFVNWLLNTKC (bridge 16-20) [triple agonist of SEQ ID NO: 94] | < 0.1
60 | Y[Aib]QGTFTSDYSKYLDEKRAKEFVQWLLDHCPSSGQPPPS (bridge 16-20) [triple agonist of SEQ ID NO: 96] | 5.2
61 | [Acetyl(2-(4-imidazolyl))]GEGTFISDYSIQLDEIAVQDFVEWLLAQKPSSGAPPPSHG [triple agonist of SEQ ID NO: 13] | < 0.1
62 | [Acetyl(2-(4-imidazolyl))][Aib]QGTFTSDYSKYLDEKRQKEFVQWLLDTKC (bridge 16-20) [triple agonist of SEQ ID NO: 89] | < 0.1
63 | Y[Aib]QGTFTSDYSKALDEKAAKDFVNWLLDHHPSSGQPPPSC (bridge 16-20) [triple agonist of SEQ ID NO: 99] | 57.7
64 | [Acetyl(2-(4-imidazolyl))]GEGTFTSDLSKYLDSRRQQLFVQWLKAGGPSSGAPPPSHG [triple agonist of SEQ ID NO: 11] | < 0.1
65 | Y[Aib]QGTFTSDYSKALDEKAAKDFVNWLLDQHPSSGQPPPSC (bridge 16-20) [triple agonist of SEQ ID NO: 102] | 58
66 | Y[Aib]QGTFTSDYSKYLDEKRAKEFVQWLLDCHPSSGQPPPS (bridge 16-20) [triple agonist of SEQ ID NO: 97] | 2.6

Source: patent US20230118307A1, “THERAPEUTIC USE OF LONG-ACTING CONJUGATE OF TRIPLE AGONIST HAVING ACTIVITIES TO ALL OF GLUCAGON/GLP-1/GIP RECEPTORS FOR LUNG DISEASE” (HANMI PHARM. CO., LTD., priority 2020, published 2023)
